Experimental findings from the supplement of paper PMC9112550, “Optimization of the antimicrobial peptide Bac7 by deep mutational scanning” (BMC Biology, 2022) are described below.

This data set has as its system Escherichia coli TOP10. In words: shrunken log2 fold change of peptide-encoding DNA abundance (4.5 h post-induction vs induction); higher = less antimicrobial activity (less host growth inhibition). Conditions: time post-induction: 4.5 h; library: site-saturation at positions 5, 18, 19, 20.
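Further: peptides expressed intracellularly from a pBAD plasmid library in pooled LB shake-flask culture, induced with 0.3% L-arabinose, DNA abundance read by NGS, three biological replicates, DESeq2 with apeglm shrinkage.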

As for RRIRYRPPRLPRPRPRPFTLPRP, the “shrunken log2 fold change” value was -0.019.

Consider RRIRIRPPRLPRPRPRPEWWPRP, for which the “shrunken log2 fold change” value was -0.0654.

Regarding RRIRCRPPRLPRPRPRPHFQPRP, the “shrunken log2 fold change” value was -0.511.

Regarding RRIRDRPPRLPRPRPRPWWHPRP, the “shrunken log2 fold change” value turned out to be 0.133.

Take RRIRARPPRLPRPRPRPWHDPRP: the “shrunken log2 fold change” value was -0.00134.

Regarding RRIRVRPPRLPRPRPRPYNVPRP, the “shrunken log2 fold change” value is -0.0185.

As to RRIRIRPPRLPRPRPRPYVVPRP, the “shrunken log2 fold change” value is -1.54.

As for RRIRWRPPRLPRPRPRPLPFPRP, the “shrunken log2 fold change” value is -0.387.

Consider RRIRERPPRLPRPRPRPCFEPRP, for which the “shrunken log2 fold change” value was -0.258.

For the sequence RRIRERPPRLPRPRPRPPWTPRP, the “shrunken log2 fold change” value is -0.0555.

In the case of RRIRTRPPRLPRPRPRPLRDPRP, the “shrunken log2 fold change” value turned out to be 0.282.

In the case of RRIRHRPPRLPRPRPRPATQPRP, the “shrunken log2 fold change” value was -0.038.

Turning to RRIRERPPRLPRPRPRPFFCPRP, the “shrunken log2 fold change” value was -0.0755.

As for RRIRSRPPRLPRPRPRPPFEPRP, the “shrunken log2 fold change” value worked out at 0.518.

For the sequence RRIRCRPPRLPRPRPRPLFVPRP, the “shrunken log2 fold change” value is -0.482.

As to RRIRPRPPRLPRPRPRPKRRPRP, the “shrunken log2 fold change” value is -0.093.

For RRIRKRPPRLPRPRPRPRGSPRP, the “shrunken log2 fold change” value is 0.319.

Turning to RRIRLRPPRLPRPRPRPPHFPRP, the “shrunken log2 fold change” value worked out at 0.437.

Consider RRIRNRPPRLPRPRPRPQYWPRP, for which the “shrunken log2 fold change” value is -0.37.

On to RRIRPRPPRLPRPRPRPEFFPRP, for which the “shrunken log2 fold change” value was -0.00122.

In the case of RRIRWRPPRLPRPRPRPYEPPRP, the “shrunken log2 fold change” value was -0.261.

On to RRIRCRPPRLPRPRPRPGCNPRP, for which the “shrunken log2 fold change” value is -0.425.

On to RRIRERPPRLPRPRPRPGHAPRP, for which the “shrunken log2 fold change” value amounted to 0.304.

Turning to RRIRHRPPRLPRPRPRPLCIPRP, the “shrunken log2 fold change” value is -0.165.

Consider RRIRVRPPRLPRPRPRPMYAPRP, for which the “shrunken log2 fold change” value is -0.17.

Take RRIRCRPPRLPRPRPRPMLWPRP: the “shrunken log2 fold change” value was -0.00796.

With RRIRGRPPRLPRPRPRPKHRPRP, the “shrunken log2 fold change” value came to 0.449.

RRIRCRPPRLPRPRPRPNPTPRP: the “shrunken log2 fold change” value amounted to 0.211.

Take RRIRVRPPRLPRPRPRPHWIPRP: the “shrunken log2 fold change” value was -0.512.

Regarding RRIRFRPPRLPRPRPRPNICPRP, the “shrunken log2 fold change” value was -0.252.

As to RRIRQRPPRLPRPRPRPTGYPRP, the “shrunken log2 fold change” value stood at 0.0832.

Turning to RRIRQRPPRLPRPRPRPLTPPRP, the “shrunken log2 fold change” value came to 0.31.

In the case of RRIRRRPPRLPRPRPRPDYLPRP, the “shrunken log2 fold change” value stood at 0.152.

Regarding RRIRCRPPRLPRPRPRPKMKPRP, the “shrunken log2 fold change” value is -0.269.

Turning to RRIRHRPPRLPRPRPRPSFMPRP, the “shrunken log2 fold change” value is -0.699.

Take RRIRTRPPRLPRPRPRPCCAPRP: the “shrunken log2 fold change” value came out at 0.125.

For RRIRTRPPRLPRPRPRPAYSPRP, the “shrunken log2 fold change” value is 0.0215.

Turning to RRIRWRPPRLPRPRPRPNGFPRP, the “shrunken log2 fold change” value worked out at 0.128.

With RRIRIRPPRLPRPRPRPCGSPRP, the “shrunken log2 fold change” value is -0.0454.

With RRIRKRPPRLPRPRPRPFLIPRP, the “shrunken log2 fold change” value was -0.19.

Consider RRIRERPPRLPRPRPRPPAPPRP, for which the “shrunken log2 fold change” value worked out at 0.569.

With RRIRCRPPRLPRPRPRPMETPRP, the “shrunken log2 fold change” value was -0.0136.

Consider RRIRDRPPRLPRPRPRPELGPRP, for which the “shrunken log2 fold change” value was found to be 1.53.

As for RRIRWRPPRLPRPRPRPILKPRP, the “shrunken log2 fold change” value was -0.281.

Take RRIRKRPPRLPRPRPRPCPTPRP: the “shrunken log2 fold change” value is 0.0658.

RRIRGRPPRLPRPRPRPAEWPRP: the “shrunken log2 fold change” value turned out to be 0.542.

Consider RRIRDRPPRLPRPRPRPQHHPRP, for which the “shrunken log2 fold change” value was -0.299.

As to RRIRWRPPRLPRPRPRPGMEPRP, the “shrunken log2 fold change” value was 0.302.

Consider RRIRRRPPRLPRPRPRPLEWPRP, for which the “shrunken log2 fold change” value amounted to 0.266.

RRIRSRPPRLPRPRPRPYTEPRP: the “shrunken log2 fold change” value was -0.186.
